Assay: soluble on expression in E. coli; label from the status in PepcDB or PDB records

With “MKPEDFRASATRPFTGEEYLASLRDDREIYIYGDRVKDVTSHPAFRNAAASMARLYDALHDPQSKEKLCWETDTGNGGYTHKFFRYARSADELRQQRDAIAEWSRLTYGWMGRTPDYKAAFGSALGANPGFYGRFEDNAKTWYKRIQEACLYLNHAIVNPPIDRDKPVDQVKDVFISVDEEVDGGIVVSGAKVVATNSALTHYNFVGQGSAQLLGDNTDFALMFIAPMNTPGMKLICRPSYELVAGIAGSPFDYPLSSRFDENDAILVMDKVFIPWENVLIYRDFERCKQWFPQGGFGRLFPMQGCTRLAVKLDFITGALYKALQCTGSLEFRGVQAQVGEVVAWRNLFWSLTDAMYGNASEWHGGAFLPSAEALQAYRVLAPQAYPEIKKTIEQVVASGLIYLPSGVRDLHNPQLDKYLSTYCRGSGGMGHRERIKILKLLWDAIGSEFGGRHELYEINYAGSQDEIRMQALRQAIGSGAMKGMLGMVEQCMGDYDENGWTVPHLHNPDDINVLDRIRQ” as the sequence, how does the “soluble on expression in E. coli” value read?
The value was “not soluble”.

Which “soluble on expression in E. coli” value does the source give for “KDQIPIILIHGSGGNASSLDKMADQLMNEYRSSNEALTMTVNSEGKIKFEGKLTKDAKRPIIKFGFEQNQATPDDWSKWLKIAMEDLKSRYGFTQMDGVGHSNGGLALTYYAEDYAGDKTVPTLRKLVAIGSPFNDLDPNDNGMDLSFKKLPNSTPQMDYFIKNQTEVSPDLEVLAIAGELSEDNPTDGIVPTISSLATRLFMPGSAKAYIEDIQVGEDAVHQTLHETPKSIEKTYWFLEKFKTDETVIQLDYK” here?
The value was “soluble”.

With “MGSDKIHHHHHHMRVELNGILPVCPCSGRGYLDNARLFRQIEPIVRKQSPFMNSRSLLCLLAVSLCASPVWADTVWMKNGDRLSGKIKVFDGGKLLLETPYGGSIALDWKQVQTLESDQEMLVKQDAYSGEKAKSLKAAEAGKVTLANGDSPKTVALASIEQIMKPKPLVEDFVWKGNVDVALDYKRAENDTDDYDVGFKTTARHGRWRHNAEGEYNRETKDDVTTTNNWSAEYALDRFITDKWFWQGRAEYKRDHIEDLARQRTVGTGPGYQFWDDELGAFSLGSLINRTDFEYRDGGKDNFYSAAVKWDYTRYLIGKNVQLFTNGEFAKPLGGVADYSLDAEVGLRYKVTEWASLNLKAEKDIITGTRESDLDKTRYTAGFGVTW” as the sequence, how does the “soluble on expression in E. coli” value read?
The value was “not soluble”.

For “AHHHHHHGSGRFVVWPSELDSRLSRKYGRIVPRSIAVESPRVEEIVRAAEELKFKVIRVEEDKLNPRLSGIDEELRTFGMIVLESPYGKSKSLKLIAQKIREFRRRSA”, which “soluble on expression in E. coli” value is on record?
Its value is “not soluble”.

Which “soluble on expression in E. coli” value does the source give for “MDQKRLTHLRQLEAESIHIIREVAAEFANPVMLYSIGKDSSVMLHLARKAFYPGTLPFPLLHVDTGWKFREMYAFRDRTANAYGCELLVHKNPEGVAMGINPFVHGSAKHTDIMKTEGLKQALNKYGFDAAFGGARRDEEKSRAKERIYSFRDRFHRWDPKNQRPELWRNYNGQINKGESIRVFPLSNWTEQDIWQYIWLENIDIVPLYLAAERPVLERDGMLMMVDDDRIDLQPGEVIKKRMVRFRTLGCWPLTGAVESHAQTLPEIIEEMLVSTTSERQGRMIDRDQAGSMELKKRQGYF” here?
The value was “not soluble”.

With “EFILVQADTPSSPSIDQVEPYSSTAQVQFDEPEATGGVPILKYKAEWRAVGEEVWHSKWYDAKEASMEGIVTIVGLKPETTYAVRLAALNGKGLGEISAASEFKTQPVREPSAPKLEGQMGEDGNSIKVNLIKQDDGGSPIRHYLVRYRALSSEWKPEIRLPSGSDHVMLKSLDWNAEYEVYVVAENQQGKSKAAHFVFRTSAQPTAIPANGSPTSGL” as the sequence, how does the “soluble on expression in E. coli” value read?
The value was “soluble”.

With “MLRGLRIIAENKIGVLRDLTTIIAEEGGNITFAQTFLIKHGEHEGKALIYFEIEGGDFEKILERVKTFDYIIEIEEEESFERVFGKRVIILGGGALVSQVAIGAISEADRHNLRGERISVDTMPVVGEEEIAEAVKAVSRLHRAEVLVLAGGIMGGKITEEVKKLRKSGIRVISLSMFGSVPDVADVVISDPVMAGTLAVMHISEKAKFDLDRVKGRRI” as the sequence, how does the “soluble on expression in E. coli” value read?
Its value is “soluble”.

For “MGSDKIHHHHHHMKIVAIDTSTKQLSVALSDGQQILAEASYVTSLNHATKLMPLLERMMQEVNWSPRDLTRIVIADGPGSYTGLRIGATTAKTLAYTLGIDLVPVSTLELMAASAGSTGRIVAIQDARRGTGFVGFYEEGQLVGEEQHTVIADFVKTLPTDTKITGDTDKFTTELQSFTIVDPAFRAPRAGVLALLGAKREPVETHAFEPRYLRLAEAEAKWIEAQRHD”, which “soluble on expression in E. coli” value is on record?
Its value is “not soluble”.

Which “soluble on expression in E. coli” value does the source give for “MGSSHHHHHHSSGLVPRGSHMGGGRSTETSSSSGGDGGATKKKVVVGTDAAFAPFEYMQKGKIVGFDVDLLDAVMKAAGLDYELKNIGWDPLFASLQSKEVDMGISGITITDERKQSYDFSDPYFEATQVILVKQGSPVKNALDLKGKTIGVQNATTGQEAAEKLFGKGPHIKKFETTVVAIMELLNGGVDAVITDNAVANEYVKNNPNKKLQVIEDPKNFASEYYGMIFPKNSELKAKVDEALKNVINSGKYTEIYKKWFGKEPKLDRLKQ” here?
Its value is “soluble”.

With “MGSDKIHHHHHHMSQTTVVNGVNVDQLMATIEQIKAKPEIAQFKFRATNQWMGGTHNQATIKDFYGACAEDDTRKPMVFDLDEPPVLLGENRGANPVEYLLVALSGCLTTSLVAHAAARGIALRGVKSRYEGDIDLRGFLGLSEEVPVGYREIRVFFSIDADLTDGQKEELIRMAQKYSPVYNTVAKPVPVAVLLDRG” as the sequence, how does the “soluble on expression in E. coli” value read?
The value was “not soluble”.

With “MSVLDELYREILLDHYQSPRNFGVLPQATKQAGGMNPSCGDQVEVMVLLEGDTIADIRFQGQGCAISTASASLMTEAVKGKKVAEALELSRKFQAMVVEGAPPDPTLGDLLALQGVAKLPARVKCATLAWHALEEALR” as the sequence, how does the “soluble on expression in E. coli” value read?
The value was “soluble”.

With “METRTYAIGVEATMDVIGGKWKPIILCNLRHGAMRPSDLKRGITGISQKMLTQQLRELEEDNIIERKVYNQVPPKVEYYLSDYGQSLSAVLDNLCNWGESHVAHLQEQGQEIYLKCED” as the sequence, how does the “soluble on expression in E. coli” value read?
The value was “not soluble”.

For “MGSDKIHHHHHHMSGKIAFVTGATGLLGSNLCRALVSQGWQVKGLVRSLDKAKRFLGDSNIELIQGDIEDVPAFTQALKGVDVVFHTAAFFREYYQPGSDWQKMKRINVDTTIELLQAAEAQGVAKVVFTSSSGVIQTDPHQAATETAPYNKFAEQNLYFKTKILAEQEIYRFLNTSQIDVVMILPGWMMGPGDAAPTSAGQLVLDLLAGKLPGVINGGAALTDVRDVATVMVKAAEKGESGGRYIVAGPLTTMKEIALELEAISGVKAPRMEIPDGMAIAIAWFLEKFTGLTGGVNPMPLAGIQTLLEKAKLSSAKAERDLGATFRPLRETLKDTVLWYQSQGYV”, which “soluble on expression in E. coli” value is on record?
Its value is “not soluble”.

For “ISDLHPQLQPLAETFLRLCRDQGVDPLLICTWRSSEEQAQLYRRGRDLPGAIVTYARPGESAHNATLHGNPAARAFDVVPLLAGKPICDIDHPHWQVMGR”, which “soluble on expression in E. coli” value is on record?
Its value is “not soluble”.

With “MNGDDTFARRPTVGAQIPEKIQKAFDDIAKYFSKEEWEKMKVSEKIVYVYMKRKYEAMTKLGFKAILPSFMRNKRVTDFQGNDFDNDPNRGNQVQRPQMTFGRLQGIFPKIMPKKPAEEGNVSKEVPEASGPQNDGKQLCPPGKPTTSEKINMISGVLQRYCRFGSRPLQ” as the sequence, how does the “soluble on expression in E. coli” value read?
Its value is “soluble”.

For “MSLKQAAENTLNLNPVIGIRGKDLLTSARMVLLQAVRQPLHSARHVAHFSLELKNVLLGQSELRPGDDDRRFSDPAWSQNPLYKRYMQTYLAWRKELHSWISHSDLSPQDISRGQFVINLLTEAMSPTNSLSNPAAVKRFFETGGKSLLDGLGHLAKDLVNNGGMPSQVDMDAFEVGKNLATTEGAVVFRNDVLELIQYRPITESVHERPLLVVPPQINKFYVFDLSPDKSLARFCLRNGVQTFIVSWRNPTKSQREWGLTTYIEALKEAIEVVLSITGSKDLNLLGACSGGITTATLVGHYVASGEKKVNAFTQLVSVLDFELNTQVALFADEKTLEAAKRRSYQSGVLEGKDMAKVFAWMRPNDLIWNYWVNNYLLGNQPPAFDILYWNNDTTRLPAALHGEFVELFKSNPLNRPGALEVSGTPIDLKQVTCDFYCVAGLNDHITPWESCYKSARLLGGKCEFILSNSGHIQSILNPPGNPKARFMTNPELPAEPKAWLEQAGKHADSWWLHWQQWLAERSGKTRKAPASLGNKTYPAGEAAPGTYVHEREGHHHHHH”, which “soluble on expression in E. coli” value is on record?
Its value is “not soluble”.

For “MHHHHHHSSGRENLYFQGMEELIPLVNRLQDAFSALGQSCLLELPQIAVVGGQSAGKSSVLENFVGRDFLPRGSGIVTRRPLVLQLITSKAEYAEFLHCKGKKFTDFDEVRLEIEAETDRVTGMNKGISSIPINLRVYSPHVLNLTLIDLPGITKVPVGDQPPDIEYQIREMIMQFITRENCLILAVTPANTDLANSDALKLAKEVDPQGLRTIGVITKLDLMDEGTDARDVLENKLLPLRRGYVGVVNRSQKDIDGKKDIKAAMLAERKFFLSHPAYRHIADRMGTPHLQKVLNQQLTNHIRDTLPNFRNKLQGQLLS”, which “soluble on expression in E. coli” value is on record?
The value was “soluble”.

With “MGHHHHHHSHMLFIKFIHLEVFSMPERAIARHEVREIEQRHTMDGPRQDATLDEEEDMVIIYNRVPKTASTSFTNIAYDLCAKNKYHVLHINTTKNNPVMSLQDQVRFVKNITSWKEMKPGFYHGHVSYLDFAKFGVKKKPIYINVIRDPIERLVSYYYFLRFGDDYRPGLRRRKQGDKKTFDECVAEGGSDCAPEKLWLQIPFFCGHSSECWNVGSRWAMDQAKYNLINEYFLVGVTEELEDFIMLLEAALPRFFRGATELYRTAPDTATPSHRHGPICGSKSISSLLVKVSPVCKDSHCLGKCSRNGLSAV” as the sequence, how does the “soluble on expression in E. coli” value read?
The value was “not soluble”.

Which “soluble on expression in E. coli” value does the source give for “MGSDKIHHHHHHMKPRNESVILLHGLARTRGSMEKMEHALSAKGYQCVNLGYPSTQFDIETLAGEHIDKALSQCRGERVHFVTHSMGGILVRQYLSQHTLPALGRVVMLGPPNRGSEVVDSLKDFPGFKWINGPAGLQLGTEEESVPNRLGKAHFEVGVIAGSRSVNLLLSTLLPWPNDGKVSVARTHLEGMRDHISLAVTHPFMMNNPSVIAQTAYFLAHGRFQR” here?
The value was “not soluble”.

Which “soluble on expression in E. coli” value does the source give for “MIGFIGSVFSPWYRWSGRKEPQNHCCLNVATYGPGGRFTMTDRGRAALRQSPDTLTVGPSRMHWTGTQLIVEVNEISSPPLVSPVKGRIVLTPTGITDVEVTLKDDGSHIWRPFAPTARIEVDLTQGHRWHGHGYFDANFGTAALEADFRFWTWGRYPVADGAACFYDATRRDGSRLELGLHVAADGRARLIQPPPEARFARSRWLVERHTPADPGTRPRQVMSMLDAPFYSRAMVETTVFGQKTVGVHEALDLRRFRSPLLMPMLAVRVPRRPGWSF” here?
Its value is “not soluble”.

For “MGSSHHHHHHGGTGENLYFQGGSGASTANASVDGSCPAMRDAADEALWAKLDEVQKLLANRSDAKELFTKYTVLRSVVGEVKPVFADSVRTRVKVFCEEPSFAAPEECDDFEPVSLHVVAYLNYKLFMEEMKELMVQARLLKSIGMEGSGLRFQRREQNIVAPGNEPRTGSSSKPSAQVSMHKPSYRPATLIPVGTLRLRRVSKASGAGKLTEVVAKIERVCVVKSARCFDVGRTLMRAAEKIARDAFHVRWALTYAQLSSKDFYTKAGYTPKDGRACMDLHMPHVVMVKCLVDASM”, which “soluble on expression in E. coli” value is on record?
Its value is “not soluble”.

For “MIKTGELKYIEEKIERREDLDEDDIVYMYDEADVNDLGKLARSITDKISGKRVSFVSNIILNYTNICNVRCKFCAFYRKSGEYDAYTMTPDGVIDEIRKYYPYGIRQILIQGGVNPNLDLDYYLTVFRKIRENFTEAGINGLSAAEINFISKKAHLTYEETILKLKEAGLETIPGAGAEILDEDVRVKLGRPRGSGRQWLEIMETAHRLGVKTTATMVYGHIESSMDKARHLISIRNLQKKYHGFLSFTPWNMEPDNTELQKEGILKYRAGAEDVIRNIAISRIVFNYDLPIIQSSWLTNGVEMGQLAILYGANDWGGTIYDEKVIPATGKRVGNLRKEIIIRSIKDLGMVPVERDNLYREIAVYE”, which “soluble on expression in E. coli” value is on record?
The value was “not soluble”.

Source: the DeepSol protein solubility set
